According to patent US20230054634A1 (INSTYTUT BIOLOGII DO WIADCZALNEJ IM MARCELEGO NENCKIEGO …, published 2023):
Where no end group is shown, it is not given here. The star is where a group is joined. Biotin = O=C1N[C@H]2[C@H](CS[C@H]2CCCCC(=O)*)N1

B1: G7 variant (A11) (peptide)
peptide: YQKLSYLDFQAQLD
notes: ELISA as for the biotin-labelled peptides
B2: G7 variant (A13) (peptide)
peptide: YQKLSYLDFQYQAD
notes: ELISA as for the biotin-labelled peptides; also called Al3
B3: G7 variant (A12) (peptide)
peptide: YQKLSYLDFQYALD
notes: ELISA as for the biotin-labelled peptides; also called Al2
B4: G7 variant (A14) (peptide)
peptide: YQKLSYLDFQYQLA
notes: as for B1
B5: G7 variant (A16) (peptide)
peptide: KQPRTYQKLSYLDFQYQLD
notes: ELISA as for the biotin-labelled peptides; also called W2
B6: G7 N-terminal (peptide)
peptide: Biotin-YQKLSYL
notes: also called N-terminal (YQKLSYL); short variant of G7
B7: G7 C-terminal (peptide)
peptide: Biotin-DFQYQLD
notes: also called C-terminal (DFQYQLD); short variant of G7
B8: G7 central portion (peptide)
peptide: Biotin-LSYLDFQ
notes: also called central (LSYLDFQ); short variant of G7
B9: G7K2 (peptide)
peptide: YKKLSYLDFQYQLD
notes: also called G7 variant with lysine in position 2

Each binder was assayed against T1, recombinant human GM-CSF protein, Myc-tagged/His-tagged (human, UniProt P04141 18-144) (assay: ELISA, GM-CSF coated).
T1 construct: also called Granulocyte Macrophage Colony Stimulating Factor; CSF2; not shown: Myc tag and His tag from the expression vector
T1 sequence (P04141 18-144): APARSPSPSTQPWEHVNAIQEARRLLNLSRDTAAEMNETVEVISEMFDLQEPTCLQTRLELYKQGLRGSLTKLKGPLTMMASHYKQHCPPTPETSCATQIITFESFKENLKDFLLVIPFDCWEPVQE
Procedure: (§1) Next, unbound proteins were washed out, then the wells were blocked with 5% BSA (bovine serum albumin) in saline and peptides labeled with N-terminal biotin (purchased from GenScript) were added. […] HRP catalyzes the conversion of chromogenic substrates into colored products. The amount of bound peptide was proportional to the amount of the colored product, and it was measured using a spectrophotometer.
YQKLSYLDFAYQLD [G7 variant (A10)]: binds.
B1: binds.
B2: binds.
B3: binds.
B4: binds.
B5: binds.

These binders were tested against T1, recombinant human GM-CSF protein, … (assay: ELISA, GM-CSF coated, biotin-labelled peptide, anti-biotin detection).
Procedure: as §1
Biotin-HSVKIRAADVRILN [G14 peptide]: binds.
Biotin-NHEVEDEIIWEEFT [G25 peptide]: binds.

These binders were tested against T1, recombinant human GM-CSF protein, … (assay: ELISA, GM-CSF coated, biotin-labelled peptide).
Procedure: as §1
(SEQ ID NO: 1). […] These peptides, labeled with a N-terminal biotin, were purchased from GenScript.
B6: no binding.
B7: no binding.
B8: no binding.

The binders below were run against T1, recombinant human GM-CSF protein, … (assay: ELISA on GM-CSF, relative to G7).
YQKLSYLDFQYQKDK [G7K15] showed a Relative binding of 60.
KYQKLSYLDFQYQLD (also called G7K-1 variant) [G7K-1] showed a Relative binding of 95.
For YQKLSYLDFQYQKD [G7K13], the Relative binding was 108.
Work on B9 yielded a Relative binding of 2.
YQKLSYLDFQKQLD [G7K11] was tested, and the Relative binding was 108.

What follows are binders tested against T1, recombinant human GM-CSF protein, … (assay: SPR (BIAcore 3000), GM-CSF immobilised, peptide injected).
RWKQPRTYQKLSYL [G6 peptide]: binds.
Biotin-WSSWSEAIEFGSDD [G16 peptide]: binds.
Biotin-IERFNPPSNVTVRC [G3 peptide]: binds.
Biotin-ADVRILNWSSWSEA [G15 peptide]: binds.
RFLRIQRLFPPVPQ [G22 peptide]: binds.
VLGFLFKRFLRIQR [G21 peptide]: binds.
NTTHCLVRWKQPRT [G5 peptide]: binds.
